From PMC11093223 (2024)

Key:
Assay in all cases: ITC
CIMPR = molecular target: T1, CIMPR (Homo sapiens (Human), UniProt P11717)
T1 chain: EEETDENETEWLM

KIAA0319 = molecular target: T2, KIAA0319 (Homo sapiens (Human), UniProt Q5VV43)
T2 chain: ESEFDSDQDTIF

NPDC1 = molecular target: T3, NPDC1 (Homo sapiens (Human), UniProt Q9NQX5)
T3 chain: DEENEDGDFTVYEC

FAM174C = molecular target: T4, FAM174C (Homo sapiens (Human), UniProt Q9BVV8)
T4 chain: DSDEETVFES

SLAMF7 = molecular target: T5, SLAMF7 (Homo sapiens (Human), UniProt Q9NQ25)
T5 chain: EDPANTVYSTVE

CPD = molecular target: T6, CPD (Homo sapiens (Human), UniProt O75976)
T6 chain: EEETLYSSKH

Kd (CIMPR): > 100 µM
Kd (KIAA0319): 35.2 µM
Kd (NPDC1): 2.9 µM
Kd (FAM174C): 15.7 µM
Kd (SLAMF7): > 100 µM
Kd (CPD): 10.6 µM
B1: TBC1D23 (protein)
chain: DRKEVVNIQTWINKPDIKHHFPCKEVKESGHMFPSHLLVTATHMYCLREILSRKGLAYIQSRQALNSVVKITSKKKHPELITFKYGNSSASGIEILAIERYLIPNAGDATRAIKQQIMKVLDALES
